# Target: pooled human IgG
Protein,Enzyme Activity Endpoint Assay (purified): Fab'2 [ng/µL],Enzyme Activity Endpoint Assay (purified): Fc [ng/µL],Enzyme Activity Endpoint Assay (purified): IgG [ng/µL],Enzyme Activity Endpoint Assay (purified): scIgG [ng/µL],Enzyme Activity Endpoint Assay: Fab′2 [ng/µL],Enzyme Activity Endpoint Assay: Fc [ng/µL],Enzyme Activity Endpoint Assay: IgG [ng/µL],Enzyme Activity Endpoint Assay: scIgG [ng/µL]
PRT-240 (protein) MEVVEVWPYGQNPNGKTEILSQTEDSESLQRLRDIEDFQAEKKMQNVVYTKWLDGVDVKDHDFRKIVDGDYAYYATPLLNGRGFYDINKDFNRDSDKCAAAVAANMFHYWLDINRDNVDRFLRQNPEKHGIIELPDGQLKLSDFLNTYESDHGYRDKSKLFDFISNAFNGPVWADKLLDNYINGYGYNKKYGRTIEDPTKNTSKFNFFKEVFNEKILTNNHQIRNQNEFSVLLSEALYTGKAIGLAYGPGGLRHSLGHIISVWGADLDADGNVVAIYVTDSDDKKLTIGDERVGLKRYKISTDDNNRLRLTTYEETHNTGAQIRGLETLDTGKYAWADYFDKTEQTGTDQAEQLEHHHHHH,0,82,1400,36,,,,
Ide85 (protein) MANQEIRYSEVTPYHVTSVWTKGVTPPAKFTQGEDVFHAPYVANQGWYDITKTFNGKDDLLCGAATAGNMLHWWFDQNKEKIEAYLKKHPDKQKIMFGDQELLDVRKVINTKGDQTNSELFNYFRDKAFPGLSARRIGVMPDLVLDMFINGYYLNVYKTQTTDVNRTYQEKDRRGGIFDAVFTRGDQSKLLTSRHDFKEKNLKEISDLIKKELTEGKALGLSHTYANVRINHVINLWGADFDSNGNLKAIYVTDSDSNASIGMKKYFVGVNSAGKVAISAKEIKEDNIGAQVLGLFTLSTGQDSWNQTN,1130,615,0,0,,,,
PRT-233 (protein) MEVVEVWPYGQNPNGKTEILSQTEDSESLQRLRDIEDFQAEKKMQNVVYTKWLDGVDVKDHDFRKIVDGNIAYYATPLLNGRGFYDINKDFNRDSDKCAAAVAANMFHYWLDRNRDNVDRFLRQNPEKHGIIELPDGQLKLSDFLNTYESDHGYRDKSKLFDFISNNFNGPVWTDKLLDNYINGYAYNYKYGRTIEDPTKNTSKINFFKEVFNEKILTNNHSIRNQNEFSVLLSEALYTGKAIGLSYGPAGLRHSLGHIISVWGADLDADGNVVAIYVTDSDDKKLTIGDERVGLKRYKISTDDENRLRLTAYEETHNTGGQIRGLWTLDTGKYAWADYFDKTEQTGTDQAEQLEHHHHHH,94,376,596,415,,,,
PRT-234 (protein) MEVVEVWPYGQNPNGKTEILSQTEDSESLQRLRDIEDFQAEKKMQNVVYTKWLDGVDVKDHDFRKIVDGNIAYYATPLLNGRGFYDINKDFNRDSDKCAAAVAANMFHYWLDINRDNVDRFLRQNPEKHGIIELPDGQLKLSDFLNTYESDDGYRDKSKLFDFISNNFNGPVWTDKLLDNYINGYAYNYKYGRTIEDPTKNTSKINFFKEVFNEKILTNNHSIRNQNEFSVLLSEALYTGKAIGLSYGPAGLRHSLGHIISVWGADLDADGNVVAIYVTDSDDKKLTIGDERVGLKRYKISTDDENRLRLTAYEETHNTGGQIRGLWTLDTGKYAWADYFDKTEQTGTDQAEQLEHHHHHH,88,376,640,432,,,,
PRT-237 (protein) MEVVEVWPYGQNPNGKTEILSQTEDSESLQRLRDIEDFQAEKKMQNVVYTKWLDGVDVKDHDFRKIVDGNIEYYATPLLNGRGFYDINKDFNRDSDKCAAAVAANMFHYWLDINRDNVDRFLRQNPEKHGIIELPDGQLKLSDFLNTYESDHGYRDKSKLFDFISNNFNGPVWTDKLLDNYINGYAYNYKYGRTIEDPTKNTSKINFFKEVFNEKILTNNHSIRNQNEFSVLLSEALYTGKAIGLSYGPAGLRHSLGHIISVWGADLDADGNVVAIYVTDSDDKKLTIGDERVGLKRYKISTDDENRLRLTAYEETHNTGGQIRGLWTLDTGKYAWADYFDKTEQTGTDQAEQLEHHHHHH,828,415,685,461,,,,
PRT-236 (protein) MEVVEVWPYGQNPNGKTEILSQTEDSESLQRLRDIEDFQAEKKMQNVVYTKWLDGVDVDDHDFRKIVDGNIAYYATPLLNGRGFYDINKDFNRDSDKCAAAVAANMFHYWLDINRDNVDRFLRQNPEKHGIIELPDGQLKLSDFLNTYESDHGYRDKSKLFDFISNNFNGPVWTDKLLDNYINGYAYNYKYGRTIEDPTKNTSKINFFKEVFNEKILTNNHSIRNQNEFSVLLSEALYTGKAIGLSYGPAGLRHSLGHIISVWGADLDADGNVVAIYVTDSDDKKLTIGDERVGLKRYKISTDDENRLRLTAYEETHNTGGQIRGLWTLDTGKYAWADYFDKTEQTGTDQAEQLEHHHHHH,294,615,594,472,,,,
PRT-235 (protein) MEVVEVWPYGQNPNGKTEILSQTEDSESLQRLRDIEDFQAEKKMQNVVYTKWLDGVDVKDHDFRKIVDGNIAYYATPLLNGRGFYDINKDFNRDSDKCAAAVAANMFHYWLDINRDNVDRFLRQNPEKHGIIELPDGQLKLSDFLNTYESDHGYRDKSKLFDFISNNFNGPVWTDKLLDNYINGYAYNYKYGRTIEDPTKNTSKINFFKEVFNEKILTNNHSIRNQNEFSVLLSEALYTGKAIGLSYGPAGLRHSLGHIISVWGADLDADGNVVAIYVTDSDDKKLTIGDERVGLKRYKISTDDENRLRLTAYEETDNTGGQIRGLWTLDTGKYAWADYFDKTEQTGTDQAEQLEHHHHHH,116,448,711,483,,,,
PRT-238 (protein) MEVVEVWPYGQNPNGKTEILSQTEDSESLQRLRDIEDFQAEKKMQNVVYTKWLDGVDVKDHDFRKIVDGGIAYYATPLLNGRGFYDINKDFNRDSDLCAAAVAANMFHYWLDINRDNVDRFLRQNPEKHGIIELPDGQLKLSDFLNTYESDHGYRDKSKLFDYISNNFNGPVWTDKLLDNYINGYGYNYKYGRTIEDPTKNTSKINFFKEVFNEKILTNNHSIRNQNEFSVLLSEALYTGKAIGLSYGPAGLRHSLGHIISVWGADLDADGNVVAIYVTDSDDKKLTIGDERVGLKRYKISTDDENRLRLTAYEETHNTGGQIRGLWTLDTGKYAWADYFDKTEQTGTDQAEQLEHHHHHH,0,81,1610,28,,,,
IdeZ2 (protein) EVVEVWPYGQNPNGKTEILSQTEDSESLQRLRDIEDFQAEKKMQNVVYTKWLDGVDVKDHDFRKIVDGNIAYYATPLLNGRGFYDINKDFNRDSDKCAAAVAANMFHYWLDINRDNVDRFLRQNPEKHGIIELPDGQLKLSDFLNTYESDHGYRDKSKLFDFISNNFNGPVWTDKLLDNYINGYAYNYKYGRTIEDPTKNTSKINFFKEVFNEKILTNNHSIRNQNEFSVLLSEALYTGKAIGLSYGPAGLRHSLGHIISVWGADLDADGNVVAIYVTDSDDKKLTIGDERVGLKRYKISTDDENRLRLTAYEETHNTGGQIRGLWTLDTGKYAWADYFDKTEQTGTDQAEQ,1340,566,0,0,,,,
PRT-239 (protein) MEVVEVWPYGQNPNGKTEILSQTEDSESLQRLRDIEDFQAEKKMQNVVYTKWLDGVDVKDHDFRKIVDGGTAYYATPLLNGRGFYDINKDFNRDSLLCSAAVAANMFHYWLDINRDNVDRFLRQNPEKHGIIELPDGQLKLSDFLNTYESDHGYRDKSKLFDYISNNFNGGLWTDKLLDNYINGYGYNKKYGRTIEDPTKNTSKINFFKEVFNEKILTNNHQIRNQNEFSVLLSEALYTGKAIGLSYGPAGLRHSLGHIISVWGADLDADGNVVAIYVTDSDDKKLTIGDERVGLKRYKISTDDNNRLRLTAYEETHNTGGQIRGLWTLDTGKYAWADYFDKTEQTGTDQAEQLEHHHHHH,49,269,689,360,,,,
IdeS (protein) ANQEIRYSEVTPYHVTSVWTKGVTPPANFTQGEDVFHAPYVANQGWYDITKTFNGKDDLLCGAATAGNMLHWWFDQNKDQIKRYLEEHPEKQKINFNGEQMFDVKEAIDTKNHQLDSKLFEYFKEKAFPYLSTKHLGVFPDHVIDMFINGYRLSLTNHGPTPVKEGSKDPRGGIFDAVFTRGDQSKLLTSRHDFKEKNLKEISDLIKKELTEGKALGLSHTYANVRINHVINLWGADFDSNGNLKAIYVTDSDSNASIGMKKYFVGVNSAGKVAISAKEIKEDNIGAQVLGLFTLSTGQDSWNQTN,1360,524,0,0,,,,
IdeZ (protein) DDYQRNATEAYAKEVPHQITSVWTKGVTPLTPEQFRYNNEDVIHAPYLAHQGWYDITKAFDGKDNLLCGAATAGNMLHWWFDQNKTEIEAYLSKHPEKQKIIFNNQELFDLKAAIDTKDSQTNSQLFNYFRDKAFPNLSARQLGVMPDLVLDMFINGYYLNVFKTQSTDVNRPYQDKDKRGGIFDAVFTRGDQTTLLTARHDLKNKGLNDISTIIKQELTEGRALALSHTYANVSISHVINLWGADFNAEGNLEAIYVTDSDANASIGMKKYFVGINAHGHVAISAKKIEGENIGAQVLGLFTLSSGKDIWQKLS,1290,481,0,0,,,,
PRT-22 (protein) MANQEIRYSEVTPYHVTSVWTKGVTPPANFTQGEDVFHAPYVANQGWYDITKTFNGKDDLLCGAATAGNMLHWWFDQNKDQIERYLKEHPEKQKINFNGEQMFDVKEAIDTKNSQLDSKLFEYFKEKAFPYLSTKHLGVFPDHVIDMFINGYRLSLTNHGPTPVKEGSKDPRGGIFDAVFTRGDQSKLLTSRHDFKEKNLKEISDLIKKELTEGKALGLSHTYANVRINHVINLWGADFDSNGNLKAIYVTDSDSNASIGMKKYFVGVNSAGKVAISAKEIKEDNIGAQVLGLFTLSTGQDIWNQTN,,,,,37,116,19,23

# — patent US20250027068
